Results taken from the DeepSol protein solubility set.

assay: soluble on expression in E. coli; label from the status in PepcDB or PDB records

| Sequence | soluble on expression in E. coli |
| --- | --- |
| MPKKRTPYETWRKNIRPIIWKRDNKQCIRCKKTVLLSECHIDHIISGLHGDNRLQNLRTLCRRCHVLRSDRLHRGMIAKALKDGVITADWRQYVWEEESLLKRLEHHHHHH | not soluble |
| MPKLHMFYLGGNAGRSNIEVHDIQFAVCDNYREAVPALKAAWFGDADKIHIDGWQIVEWADGYDIAVSETPKTKMPSEHAPRLYFANVGGYRAGQLAEAHAFGLFAAATPAEAKQKALQTLLTDSYVQQHKDNLKDVDNLLALDRIGNFHIRLTPNPHGKPAEIGFQGYLPI | not soluble |
| MPKLTIEGAGTFDVKEGTKLVLAIEDSGVNILHRCGGNARCTTCRVEILAGDFCEASANEKHAMTEKGIEDHLRLSCQMRVHKDIVVRPVLTVENSGLDAGPRPAE | not soluble |
| MPKWGNINERRNQLHEVIRLSGMNLIIDDTDHPLIIKVASIQSARMQVYFIDNDDYFQNRLQTADENGVEYDDNDSRAIFYARGVLETVKKLRWCPDVIHCHGWMTALAPLYIKKAYKDEPSFRDAKVVFSVYEDDFKGTFNNDFASKLMLKGINKKDVATLKDPVDYATLCKLAVDYSDGIVQNSEHVNEDVMNYARQSGKLVLDYQAPDALADACNSFYDQVWEAEQK | not soluble |
| MPLEASELKPTAGPLEASELKPTAGPLEASELKPTAGPLEASELKPTAGPLEASELKPTAGPLEASELKPTAGPLEASELKPTAGMFKNAKEFVQYANKLKTLREKKLNGVSIYVCVGTGCTAKGALKVYSAFEEELKKRNLLGQVTLEKIDDDKVTLNRTGCCGRCSSGPLVKIMPYRFFYSNVAPEDVPEIVDRTVLKGEPIERLFLTDPLTGEKVPRIEDTTLFKNQDFYIMEAIGESECDSIEDYIARSGYESLVKALTSMTPEEIIETVKASGLRGRGGGGFPTGLKWEFTRKAQGDIKFVVCNGDEGDPGAFMNRTLLERDPHLVLEGMIIAGYAVGAQKGYAYIRAEYPFAVKMFKKAIEDARKLGLLGENILGTGFSFDLEVKEGAGAFVCGEETALLASIEGKRGMPRPKPPFPAQSGLWGKPTLINNVETYANIPRILRDGVENYRKRGTENSPGTKMFSVAGPLKATGIIEVEFGTTLRDIIYNICGGFVEGEEFKAVQIGGPSGACLSEDFIDMPLDYDTLKKADAMVGSGGIVVITKKTCMVEVARFFLDFTKRESCGKCVPCREGTMQAYNILEKFTHGKATYEDLKTLEHLSKTIKTASLCGLGKTAPNPILSTLKLFREEYIAHIEGECPSGMCTAFKKYVINPDICKGCGLCARSCPQNAITGERGKPYTIDQEKCVKCGLCASKCPFKAIELVAAALEHHHHHH | not soluble |
| MPLEASELKPTAGPLEASELKPTAGPLEASELKPTAGPLEASELKPTAGPLEASELKPTAGPLEASELKPTAGPLEASELKPTAGMYAFKAVKQYFYPSDNLKVLMHKFTDMVNFTINIMIEKNLTSRNSVSNEVYHKLKEYEIPSYYYIEAINKAVALVKTYRKRLKKKQKATVPHVEKPMLSTYYGFKIVGGNLMIPIANREYESIPLNAYVRDATSMVKVHSFALSAYTLSLTIGRDVDAIECTTTVGVDRNLRNATVGNEFHHEIYDLSNVVEIKQRYRKKESHFHRNDRRIREKILSKYGKRERNRVKQIMHETSKAIVSNASTRKEMIVLENIRGINKITKKGDGKGKDYRFLLKNAFPYGMLASQVMYKASWEGLPVIELTRKETRNTSRMCSVCGSLTRIEHGRILKCDSCGLEIDRDVNACINIAFRYRTCLKRSHKGLPGEAVKQSKDVEQMAGSQISTDILEHHHHHH | soluble |
| MPLGLFSSGKAQVLCDEKIPGGKKKEPKQLSENKCKGVTLKLDHTRVTIEKQIAEGGFAIVYVASDRKNNKFALKRQFTKDNEKQLEACCREHSFLKQCIGHKNIVEFVDSYTNCLGNGIWECMLLTEYHQKNVLQLMNERISQNQYLTNDEILSIFTDLCEAVSFIHNRPQPIIHRDLKVENVLISSHKPPHYVLCDFGSATTQILSVEKYGVEYVKSEVERNTTMCYRSPEMIDFYSGLEIGLKSDIWALGVLLYRLCFFCVPFEESPLAIQSVNYQFPSVPNIPDEIKVLIYMLLDIDVNRRPSIYQTSVLAFEANHRKPLSEEIQNKKCTDAVPSLKSCIQLMRDGSNPRNKRDSSPRNPEAPPIQSSSKMASLSQQVPSISNISMPSGSGTVETSVAPRLRPKATTVVPNVPSISPVPPVGLPHLRLPSKGSTDETDGSQVRKVPIDFHHRQSFSGEEQLKPAAEADSAGPLSCPLIKPTDLGFTDLDKPALPRDRAQTDGKRRLPHESDIIFQQQHRRNVSDTSQISRSAFKPYSSQQTTSKTSSQVVRSVEDMSQRQNGGSGEWNPFLVAPFSNNSISRKDGQESAFMMDDSHFGMVFDEIRRKEIPAELDSETSSIDSRDPFGAAPFDQLTVSTSSSAQPVSLPPGSVHLHTSIAPSPLLRHVLTKAPPPVPRRTTSRGFQV | not soluble |
| MPLLCALIVGGLFGTSQAQAGGFMVPTTNTAGWGRAMAGGSLFPNDPSAAFNNPAAMAFIDKRIAQLTVNYADIDIKYNGDAYDYQGNPMTGGYQDGPGTPELGTNDGGQAGFGAWLPTGFLVVPINDRFAFGLSQVVPMGMRSTWDPNWKGRDFAVDTKIETIGLTGSLSFKVNDNFSLGAGVIIQRTSGFVSQNLDLYASAANSPGMGGIPFPASNSSALMRVKVDNTSPGFFAGAVWKPTDRDTLGFAYHAKIRNKLKGHYNLYDHDGGLTEGAIEGGTPGLAYPGLDLRMGASASARLDIPAYASLDWVHQFNDRLSLGASATWTEWSSFQDLTLKSHGNTIVSIPYTYRNTWTLAVGGDYKVTDQWTMRAGVAYDQTPTHNATRDPRIPDGDRYFASLGAGYRFQSMPELSIDAAYSRQFVKEVPLKTVNQDRLGGGRLDGRATSKGQVFSLSATYDF | not soluble |
| MPLLSVIIPFGLSKERPYIEERVLQKAKFFQSDENIEFIFVEGYSSKDHELKNFIQANHHIYLKDMDQKAFSQGRCRNLGASYAHSNVLLFLDVDCYISLDNFEKILKLIQIKNISQNINALIVLPVVYLNKEANEKLKQYDDKFWDILIQEDLFTAKNTWVKFFAPSSTSSIVINKHQFLRLGGNDENFIGHGYEDFDLFARILKACVSFEKMPTNLSYDARNWNFFNFKGFRSWFSLLGYEACFYGIYIYHFYHIEPNQNAYMQNKDKNHQLFYKHLKNIKKHDLKPLQVFKAKGEKVLMLFKDQNYDFKDISVYVGEIIYKNISDFFIAKELKYELLLDFLQQEKITKIFLDASIKLQFNGIDYCDIFYFQKGILPHSWFFAKKLDLGYKQDLNLSEQKLYQVKEYFLTLKEDEKKVILDFLSQNNDDKYDLYKMLYYLINELYSFEHDGIFYQIIIDKEKMLIAQKHDKSFYPLRSFVYKPYLHELKSIRPFSFLMKILGLEYLGAMISHTKFYRLARKLFFNPKGFFEDFNYKIMKGKI | not soluble |
| MPLPDFHVSEPFTLGIELEMQVVNPPGYDLSQDSSMLIDAVKNKITAGEVKHDITESMLELATDVCRDINQAAGQFSAMQKVVLQAATDHHLEICGGGTHPFQKWQRQEVCDNERYQRTLENFGYLIQQATVFGQHVHVGCASGDDAIYLLHGLSRFVPHFIALSAASPYMQGTDTRFASSRPNIFSAFPDNGPMPWVSNWQQFEALFRCLSYTTMIDSIKDLHWDIRPSPHFGTVEVRVMDTPLTLSHAVNMAGLIQATAHWLLTERPFKHQEKDYLLYKFNRFQACRYGLEGVITDPHTGDRRPLTEDTLRLLEKIAPSAHKIGASSAIEALHRQVVSGLNEAQLMRDFVADGGSLIGLVKKHCEIWAGD | soluble |
| MPLPYDKEKKLWKVTGWYLESSEETGEVMQSKQIAFEGYTNEENFANRQRVSVFKSFYESGNLKSIYHYNAQNKRDGKAETYFDEKDKIAETLTFKDGQPEGEYIVYHENGAVESKRYFAQGKIKDGECPHFYDNGVLKQKHSYLNQKLEGPAFEYFPDGKIKGKYSYSKGTIVGTSTEYYSTGKIRGVYHRNNQGENDGTFEQYSEEGKLLSKATYKNGKQLSAQSWYENGHPKEESSFDSEGRKHGAVKEWFSNGKPASSKMYKHDVLDGDFEKWYENGHRESVYPYKNGMLNGDAKHWNEQGKLTYTTEYKDDKKQGADRRWSERTGKLVEEVMFANDERNGLKREFNDRTGKVLSALPYVDGDKEGTEEAYDEDGIKYIRCYHNDEELSELYAPTDVTNKAKQGDSTAQYHLGKYEFECTNYDAAMKWLTQSAEQNHPGALLFLAYAYNDGDGVAQDSKKYLSYLFKAAELGESDAQLEVGYLNLIGEGMPKNLPEAYKWIKKSADQGNAQAHYNLGLMYRNGDGVEKDLNKAKLHLTAAVKGGVKPALAALKELTPQTKLEHHHHHH | not soluble |
| MPLSPLDIHNKEFTRGFRGYDEDEVNDFLDQIIKDYEQVIKEKKRIEDTLNNSEERLGHFTNIEETLNKSLIVAQTAAEEVKASAEKEAKLIIREAEKNADRILSDSLSKARKIAIEIEDLKRQSKVFRERLRMLVEAQMDLIKSEDWQQMMAYDVDATELASIKEVESAESEER | not soluble |
| MPLTPLDIHNKEFTRGFRGYDEDEVNEFLDQIIKDYEAVLREKKELFDRVTDLDEKLEHFQNIEETLNKSILVAQESAEEVRRNAQKEAQLIVKEAEKNADRIINDALAKSRKIMLEMEELKKQASVYKMRFKMLIEAQLEMLNTDDWDEVTEDSGDERSEEYAE | not soluble |
| MPLVSVVMPVYNSAATLGAAVRSVLTQTHGDLELLVTDDQSSDGSMDLLREFAAQDERVLPRSSPERGGAGRARNLAIERARGDYVAFLDSDDMWLPEKTEKQLAFAAEGTAPLTFTSYFKMDADHDGESTDWVPNGRVIRAREHVDYRAMLVQDHIGALTAMYDRNVLGTRLMPEMRKRQDYALWLSIMRDGADARGLAEPLAVYRAHQAGSLSSNKLSLVEYNWALYREHENLSVPRATRALAGAVWQSLRNSRILEHHHHHH | not soluble |
| MPLVVFCGLPYSGKSRRAEELRVALAAEGRAVYVVDDAAVLGAEDPAVYGDSAREKALRGALRASVERRLSRHDVVILDSLNYIKGFRYELYCLARAARTPLCLVYCVRPGGPIAGPQVAGANENPGRNVSVSWRPRAEEDGRAQAAGSSVLRELHTADSVVNGSAQADVPKELEREESGAAESPALVTPDSEKSAKHGSGAFYSPELLEALTLRFEAPDSRNRWDRPLFTLVGLEEPLPLAGIRSALFENRAPPPHQSTQSQPLASGSFLHQLDQVTSQVLAGLMEAQKSAVPGDLLTLPGTTEHLRFTRPLTMAELSRLRRQFISYTKMHPNNENLPQLANMFLQYLSQSLH | soluble |
| MPMISCDMAYGRTDEQKRALSAGLLRVISEATGEPRENIFFVIREGSGINFVEHGEHLPDYVPGNANDKALIAKLK | soluble |
| MPMKDISDFAANDPNKDYCVYCSRPDGEMQSFEEKKESLTKFIVKTQGADENVAWKIAENMMHKLPAWKEYFN | not soluble |
| MPNVIGVQFQKAGKLEYYTPNDIQVDIDDWVVVESKRGIEIGIVKNPLMDIAEEDVVLPLKNIIRVADDKDIDKFNCNERDAENALILCKDIVREQGLDMRLVNCEYTLDKSKVIFNFTADDRIDFRKLVKILAQHLKTRIELRQIGVRDEAKLLGGIGPCGRSLCCSTFLGDFEPVSIKMAKDQNLSLNPTKISGACGRLMCCLKYENDYYEEVRAQLPDIGEAIETPDGNGKVVALNILDISMQVKLEGHEQPLEYKLEEIETMHLEHHHHHH | not soluble |
| MPPCYPFMLSWKGWARDSPGRPGGAMRAHIITYGCQMNEYDSHLVASELVSLGWELVDSVEEADFVLVNTCAVRGKPVEKVRSLLGQLRKEKERRGLLIGMMGCLAQLDEGQQMAKKFGVDVLLGPGALTSLPEALKANERFWDLTFREDVLDYIPPPPKGALSAHVTIIRGCNHHCTYCIVPTTRGPEVSRHPDLILKEIELLKQAGVVEVTLLGQNVNSYGKDQPGFPSFAELLRMVGGMGIPRVRFLTSHPVNFTDDIIEAIAETPAICRYIHLPVQSGSDRVLRRMAREYRRAHYLERIRKIREALPDAVLSTDIIVGFPGETEEDFQETLSLYDEVGYDQAYMFIYSPRPGTPAYKHFQDLPREVKVERLMRLIEKQKEWSYRRNLEWVGKTVEVLVRGEAKEEGFVQGHDRGNHPVLVPASQAPVPGLYQVEIKQATPHLLFGEVVGAEAPAPIPLPVA | soluble |
